Results as given in patent US20200199207A1 (MABYLON, published 2020).
Blank lines part the entries; values can stand above or below the binder they belong to.

Columns and labels:
Assay in all cases: competition ELISA, peptide in solution vs coated Ara h 2
Peptide 10 = target: T1, Peptide 10 (peanut)
T1 construct: also called linear Ara h 2 peptide 10
T1 peptide: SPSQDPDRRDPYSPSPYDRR
Procedure: (§1) A competition ELISA was used to evaluate binding of exemplary anti-peanut antibodies of the present invention to linear Ara h 2 epitopes. Serial dilutions of linear Ara h 2 epitopes (100 μM down to 0.19 nM; peptides with a length of 20 amino acids and an overlap of 12 amino acids between the peptides) were pre-incubated with exemplary anti-peanut antibodies ([…]) for 1 hour at room temperature. The pre-incubated antibody-epitope mixtures were subsequently incubated on plates coated with full length Ara h 2 (coating overnight at 4° C. with 0.05 μg/ml Ara h 2 in PBS, followed by wash out and blocking with 2% BSA in PBS). The plates were subsequently washed and binding of MAbs to Ara h 2 was detected HRP-conjugated goat anti human Fc-gamma-specific antibody (Jackson ImmunoResearch, West Grove, Pa., USA) followed by measurement of the HRP activity using a tetramethylbenzidine substrate solution (TMB, Sigma-Aldrich Chemie GmbH, Buchs, Switzerland). As may be seen from Table 5, exemplary anti-peanut allergen antibody 32B10 binds to different linear Ara h 2 epitopes than 12G10 and 37D5.

Peptide 17 = target: T2, Peptide 17 (peanut)
T2 construct: also called linear Ara h 2 peptide 17
T2 peptide: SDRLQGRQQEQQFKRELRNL
Procedure: as §1

Peptide 19 = target: T3, Peptide 19 (peanut)
T3 construct: also called linear Ara h 2 peptide 19
T3 peptide: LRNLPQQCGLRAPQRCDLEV
Procedure: as §1

Peptide 6 = target: T4, Peptide 6 (peanut)
T4 construct: also called linear Ara h 2 peptide 6
T4 peptide: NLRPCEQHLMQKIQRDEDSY
Procedure: as §1

Peptide 14 = target: T5, Peptide 14 (peanut)
T5 construct: also called linear Ara h 2 peptide 14
T5 peptide: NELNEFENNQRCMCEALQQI
Procedure: as §1

Peptide 16 = target: T6, Peptide 16 (peanut)
T6 construct: also called linear Ara h 2 peptide 16
T6 peptide: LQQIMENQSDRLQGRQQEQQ
Procedure: as §1

Peptide 5 = target: T7, Peptide 5 (peanut)
T7 construct: also called linear Ara h 2 peptide 5
T7 peptide: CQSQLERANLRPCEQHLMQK
Procedure: as §1

Peptide 15 = target: T8, Peptide 15 (peanut)
T8 construct: also called linear Ara h 2 peptide 15
T8 peptide: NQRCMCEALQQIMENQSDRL
Procedure: as §1

Peptide 8 = target: T9, Peptide 8 (peanut)
T9 construct: also called linear Ara h 2 peptide 8
T9 peptide: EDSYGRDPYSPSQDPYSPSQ
Procedure: as §1

Peptide 20 = target: T10, Peptide 20 (peanut)
T10 construct: also called linear Ara h 2 peptide 20
T10 peptide: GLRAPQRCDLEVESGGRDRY
Procedure: as §1

Peptide 1 = target: T11, Peptide 1 (peanut)
T11 construct: 20-mer of Ara h 2, overlap of 12 with its neighbours; also called linear Ara h 2 peptide 1
T11 peptide: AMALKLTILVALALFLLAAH
Procedure: as §1

Peptide 2 = target: T12, Peptide 2 (peanut)
T12 construct: also called linear Ara h 2 peptide 2
T12 peptide: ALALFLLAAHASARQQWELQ
Procedure: as §1

Peptide 7 = target: T13, Peptide 7 (peanut)
T13 construct: also called linear Ara h 2 peptide 7
T13 peptide: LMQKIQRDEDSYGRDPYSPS
Procedure: as §1

Peptide 4 = target: T14, Peptide 4 (peanut)
T14 construct: also called linear Ara h 2 peptide 4
T14 peptide: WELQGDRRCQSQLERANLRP
Procedure: as §1

Peptide 11 = target: T15, Peptide 11 (peanut)
T15 construct: also called linear Ara h 2 peptide 11
T15 peptide: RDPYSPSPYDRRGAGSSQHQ
Procedure: as §1

Peptide 3 = target: T16, Peptide 3 (peanut)
T16 construct: also called linear Ara h 2 peptide 3
T16 peptide: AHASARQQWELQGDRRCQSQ
Procedure: as §1

Peptide 18 = target: T17, Peptide 18 (peanut)
T17 construct: also called linear Ara h 2 peptide 18
T17 peptide: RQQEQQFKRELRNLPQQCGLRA
Procedure: as §1

Peptide 12 = target: T18, Peptide 12 (peanut)
T18 construct: also called linear Ara h 2 peptide 12
T18 peptide: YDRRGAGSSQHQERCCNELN
Procedure: as §1

Peptide 9 = target: T19, Peptide 9 (peanut)
T19 construct: also called linear Ara h 2 peptide 9
T19 peptide: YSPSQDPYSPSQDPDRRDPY
Procedure: as §1

Peptide 13 = target: T20, Peptide 13 (peanut)
T20 construct: also called linear Ara h 2 peptide 13
T20 peptide: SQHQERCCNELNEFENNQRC
Procedure: as §1

binding result (Peptide 10): no binding (tested: 100 µM)
binding result (Peptide 17): no binding (tested: 100 µM)
binding result (Peptide 19): no binding (tested: 100 µM)
binding result (Peptide 6): no binding (tested: 100 µM)
binding result (Peptide 14): no binding (tested: 100 µM)
binding result (Peptide 16): no binding (tested: 100 µM)
binding result (Peptide 5): no binding (tested: 100 µM)
binding result (Peptide 15): no binding (tested: 100 µM)
binding result (Peptide 8): no binding (tested: 100 µM)
binding result (Peptide 20): no binding (tested: 100 µM)
binding result (Peptide 1): no binding (tested: 100 µM)
binding result (Peptide 2): no binding (tested: 100 µM)
binding result (Peptide 7): no binding (tested: 100 µM)
binding result (Peptide 4): binds
binding result (Peptide 11): no binding (tested: 100 µM)
binding result (Peptide 3): no binding (tested: 100 µM)
binding result (Peptide 18): no binding (tested: 100 µM)
binding result (Peptide 12): no binding (tested: 100 µM)
binding result (Peptide 9): no binding (tested: 100 µM)
binding result (Peptide 13): no binding (tested: 100 µM)
B1: h32B10 (antibody, V domains shown)
VH: QVQLVQSGAEVKKPGASVKVSCRASGYIFRNFDINWVRQATGQGLEWMGWMSPKSGDTGYAQKFQGRVTMTRDTSINTAYMELSSLTSEDSAVYYCARGVDGTNWGQGTRVTVSS
VL: DIVMTQSPDSLGVSLGERATISCKSSQSILDNSNNKNFIAWFQQKPGQPPKLLIYWASARESGVPDRFSGSGSGTEFTLTINSLQAEDVAVYYCYQYYSTPHTFGQGTKLDLR
notes: Recombinant human IgG; also called hMAb 32B10

binding result (Peptide 10): binds
binding result (Peptide 17): no binding (tested: 100 µM)
binding result (Peptide 19): no binding (tested: 100 µM)
binding result (Peptide 6): no binding (tested: 100 µM)
binding result (Peptide 14): no binding (tested: 100 µM)
binding result (Peptide 16): no binding (tested: 100 µM)
binding result (Peptide 5): no binding (tested: 100 µM)
binding result (Peptide 15): no binding (tested: 100 µM)
binding result (Peptide 8): binds
binding result (Peptide 20): no binding (tested: 100 µM)
binding result (Peptide 1): no binding (tested: 100 µM)
binding result (Peptide 2): no binding (tested: 100 µM)
binding result (Peptide 7): no binding (tested: 100 µM)
binding result (Peptide 4): no binding (tested: 100 µM)
binding result (Peptide 11): binds
binding result (Peptide 3): no binding (tested: 100 µM)
binding result (Peptide 18): no binding (tested: 100 µM)
binding result (Peptide 12): no binding (tested: 100 µM)
binding result (Peptide 9): binds
binding result (Peptide 13): no binding (tested: 100 µM)
B2: h12G10 (antibody, human IgG1, V domains shown)
VH: EVQLLESGGRLLRPGGSLSLSCVASGFYFGDFGMSWVRQVPGKGLEWVSGIDWSGRSTGYVDSMKGRLTISRDNDKSSLYLQMNDLRGEDTAVYYCARVGRLCSGDSCDSMGAFDLWGQGTMVTVSS
VL: DIQLTQSPSTLSASIGDSVTITCRASQNIDNWLAWYQQKPGKAPRLLIYKASSLGSGVSSKFRGSGFGTEFTLTITSLQPDDFATYYCQKSNGYSRTFGQGTKVDIK
notes: Recombinant human IgG; also called hMAb 12G10
